Binding Affinity to Mouse MHC Class I data for 20 molecules are collected here from patent US20120301492A1.

For the first assay, the target named is mouse B6 class I antigens (Mouse MHC Class I; D^b or K^b molecules on the surface of RMA-S cells). As to the kind of experiment: binding of 9-mer peptides within p117-139 to mouse B6 (H-2^b) class I antigens; RMA-S assay as for Table XLVII.
As for APYLPSCLE [WT1 peptide P131-139 (…)], the Binding Affinity to Mouse MHC Class I was determined as 1%.
Regarding PSQASSGQA [WT1 peptide P117-125 (…)], the Binding Affinity to Mouse MHC Class I is 2%.
For the molecule ARMFPNAPY [WT1 peptide P125-133 (…)], the Binding Affinity to Mouse MHC Class I is 1%.
The molecule NAPYLPSCL [WT1 peptide P130-138 (…)] had a Binding Affinity to Mouse MHC Class I of 79%.
The molecule PNAPYLPSC [WT1 peptide P129-137 (…)] returned a Binding Affinity to Mouse MHC Class I of 1%.
Same read-out and setting: the figure for QARMFPNAP [WT1 peptide P124-132 (…)] is 1%; for SSGQARMFP [WT1 peptide P121-129 (…)] it is 1%; for FPNAPYLPS [WT1 peptide P128-136 (…)] it is 1%.
Consider ASSGQARMF [WT1 peptide P120-128 (…)], for which the Binding Affinity to Mouse MHC Class I stood at 1%.
In the case of QASSGQARM [WT1 peptide P119-127 (…)], the Binding Affinity to Mouse MHC Class I amounted to 2%.
On the same count and under the same terms, in the case of SQASSGQAR [WT1 peptide P118-126 (…)] it was 2%.
The same measure, in the same setting: the figure for MFPNAPYLP [WT1 peptide P127-135 (…)] is 2%.

Another assay shares this target. Briefly: RMA-S class I stabilisation, flow cytometry with FITC anti-D^b or anti-K^b; % increase of MFI over medium alone, peptide 25 ug/ml.
For GCNKRYFKL [WT1 peptide p329-337 (…)], the Binding Affinity to Mouse MHC Class I came out at 1.2%.
SCLESQPAI [WT1 peptide human p136-144 (…)] had a Binding Affinity to Mouse MHC Class I of 52%.
As for ALLPAVPSL [WT1 peptide human p10-18 (…)], the Binding Affinity to Mouse MHC Class I was found to be 2.2%.
Take CMTWNQMNL [WT1 peptide p235-243 (…)]: the Binding Affinity to Mouse MHC Class I was found to be 33.6%.
NQMNLGATL [WT1 peptide p239-247 (…)]: the Binding Affinity to Mouse MHC Class I was determined as 1%.
The molecule NLYQMTSQL [WT1 peptide p225-233 (…)] showed a Binding Affinity to Mouse MHC Class I of 5.8%.
The same measure, in the same setting: the figure for YSSDNLYQM [WT1 peptide p221-229 (…)] is 0.8%; for QMTSQLECM [WT1 peptide p228-236 (…)] it is 1.2%.
